Assay results reported in the DeepSol protein solubility set.

test: soluble on expression in E. coli; label from the status in PepcDB or PDB records

Sequence | soluble on expression in E. coli
MDLSSLEIFRAVAHEASVTRAAQRLQRAQSNVTTRIRQLEEDLGVELFLRDGKRMSLTERGSEFLAYAEQLLALADEARQSMHPAEPGGRLRLGSMESTAASRLPALLASYHKACPRVALEVSTGTSHALFDGVRARRLDCALVAAGPGWAGELDGSGLRGEPLFREELLMILPAEHPPVHDVAEVRLRTLAGFARGCTYRQLAEDSLGTPLTVQEVGSYHAILACVAAGACVGVLPRSVLQLLGTPPLRSLPLAEVDTWLVWREGYATAAFERWRGVLGQAGD | not soluble
MKIKSIEPTPSPNTMKVILTEELPAGKSNNYKPEQAEGAPLVIAEILKIDGVKGVYHVADFLAVERNARYDWKDILPQVRTAFGMESAESAEENRSDQESFGEVKVFVQMFSGIPMQVKLTDGEREERFGLPERFQQAILKLRSEASNVVFERAWKEQGVRFGDFDEIGHDVTEELQAAYSDERLKRLTEAAAQGKGEAKQAVQRKAYKVTLDMLDDEDWKKRYAHLEQMDPKEEDIPVLQKALDDPKVSIRRQAVVYLGMIETPDVLPLLYKALEDKAVSVRRTAGDCLSDIGDPQAIPAMIKSLSDSSKLVRWRAAMFLYEVGDESAIEALRAAEDDPEFEVSLQVKMALERIEHGEEAKGSVWKQMTESRKKGE | soluble
GIDPFTAPGQLECETAIAALNSCLRDLDQASLAAVSQQLAPREGISQEALHTQMLTAVQEISHLIEPLASAARAEASQLGHKVSQMAQYFEPLTLAAVGAASKTLSHPQQMALLDQTKTLAESALQLLYTAKEAGGNPKQAAHTQEALEEAVQMMTEAVEDLTTTLNEAASAAG | soluble
MDCIRVTTIGYYHRDGDMRVTPGLLPKILNRECLKPLREDFFNLNIEVPDSGQGENNMVSFLDYISQTKCLEDAQPDFVTNKQILTALTGNKPFTIHAIHLKGTIFSFKSGEVRYQDTKNFGGAFEHFCTRTRNDEQLETDDTVRKAVFKAEIPRGNTQFYRVLYSGQIDAIDNEVDRKHYELKIMSQGLNEYFWKEKSCKFYWQSVFGNAPVLIIGSRSGQYSTQTTNNYPPYSLYKVEELKRDRIPSMAARCRKIPGRFGPAPPWKISEGEDNALYFLDLVKDNVINDGDCFSFTRTDENPDWDVKRDEESAAQFRDVVLQYLDR | not soluble
ESYAIFSLNAQFDALTINKARKLYRGKTRLLQGQRIELSDWPETSVERTEFYRYLLNKNLAQMNAHWASLSFSGKARPPKVIDQPSIEILLAWMREQPNRIGYAPVDSLPSDAHVLYVV | not soluble
MGSDKIHHHHHHKNTDLVAEDSICFPIDEHTYYASKSIFQFEENGHEYLSFLDAEYSQKINIYDIKNQKLIKTILLQKEGPNGMNVLSGCHPLNLNHFIITSWNGTFSLVNDKGEIEKKFDFWEKGVNFQEFDHISFSSYSYKPAIIKDSILYFSQSFLKHPRKKSDWNKIPMFAFANLNTGKTGWSELRYPLIFNKDEDFKNVKLYDPEICYTYTGKDVVISLGQYDSIMVSSDFKHKISYNAKSRYLAHAYPHLQDGQIDLFKNIQIQGKLPHYSHLMYDKYRKVFYRFALMPDDNIKPFSNNPHQSFSIIILNKDYEIIGETKFPGNTYTHHLCFVGKKGLYISENNENNPQFDENKLVFRCFTLQDRKK | not soluble
MDKKVYNTYVSILKNELVVALGCTEPIAIAYAGAKVREVLEAMPDRCEINCSGNIVKNVKGVTVPNSGGMKGIDTAATLGIVGGNVKRILAVLEDITPEQIETTQKLVKEGFCSCGLIEGVENLYIIITAYAGEESATVEIRDYHSNITKIVKNGKIIFSTDDEQSEQSSGPDKSLLNVKDILEFADCVDLSDISEVISRQIECNTAISQEGLNNPWGAQVGRTLLDTFGSDVAIRAKAAAAAGSDARMSGCPMPVVINSGSGNQGMTVSLPIIEYAKEYNISDEGLYRALVAGNLISLHQKKYIGSLSAYCGAVSAACGSGVGIAYMLGASYDEICGIITDTIATIGGMVCDGAKPSCAAKIASAVDCALTAFHLSKNKRVFQPGEGLVKETVEDTIQSIGRMGREGMKATDIEILNIMLEN | not soluble
GPGSMLRLGQPTLTAMRCVPAASASATAVAPTTSYPSTSAALLANTRAIHGEVRHQNTDYDNTRIPWDFTTSSYEKIHNEILPKFPRGRRISATIPLLHLAQQQQGGYIPVTAMYKIAKICEVPPMHVFETVTFYSMFNRHPVGKYHIQFCRTTPCMLCGADELMERTMHYLNVRMHGTTSDGLITIGEMECLGACVNAPMLVVSDYSNPPNFSYDYMEDLTWESIKTLVENLRGGKPFKIGSQRLDRRYAEPAGGRTSLLFKEPPGPYCRDFDAEPDKKADAASPKK | not soluble
MGQKKYVELSKDIFIFSYLCGGINFTDIANLTQENIVNGRLHYIRQKTGKLIKIGIPQEAMQIIKKYTDESNGYLFPILNVKVHKTALQKQNRIHKIRGKVNDILKTLGKRLGIEANITTYVARHSFASVLKKSGVNIALISEALGHSDLATTQIYLDSFDNEQVDEAMKNLLEHHHHHH | soluble
MDGQTLHAWAKRFALELPFTEHCWPFGPQYDVFKVGGKIFMLFTEHHCRPVVNLKSDPQKSLVNQQIYPSIAPGYHMNKKHWISVYAGEDITVSLLNDLINDSWNLVVDGLPKREQLRLRPR | not soluble
SSVPPGSIIVSDWHRCPDSREFFSKILHKKRRRKFGLLEAPMMPPQMNVDLVRYKVFLSGKTGVGKSALAARLAGLDLPKMHYETTGIETTVVFWPVRLKESGRVLFFRFELWDCGESAMRRFDHMLLSCKEKVDAILFLFSFTDRGSFDDLTNQISRITEPSDRVVKLVVGTKFDLFMHTDVTESDVTHFQEVWGLPVFRVGGDVSAGLGEVAPLLNALAENLWHQDCMAASSVSISPQAALRETSSEIIV | not soluble
MATTQQSSTKQDILEYLLKEVQATSLELAEVLEVSPQAIRRHLKDLETDNLVVYFVPEQVGMGRPQHLYQLSQRGREQLQRNVNRLSDGYGDFAVSLLDTLAATVGREQVKTILQKQWERKAQEYRERVGTGSLQERVANLVELRKAEGFMAEFYPVESDSAHSERFIFMEHTCAISNVAESFPSICGHELEMFAAILPDCTVKRTHWLIDGEHRCGYLVQRSSGVTGVTEVEN | not soluble
FCYSFCKNYANEIKKIITDFIEHNKINFQNEIENAFITSVIIVHTGIDAFSISLLI | not soluble
MAHHHHHHMSGRPEEGLYGNVESQSSNVSQGGRRRTRSEFEGDTDHSSATRIRLEGMYRPQWTMSSTVKDILLEGSTLRTDMKLNEFIRSNLDEEWVVERNGNVIMEAFVQEPDAYVQDQELLRRIINLPAYQALEERKILLEATYKLHHEGVYFLRQWGEHEGKDTVSSHARGKLNGVLTGIEIEEKERREAEEREKARREEEARRDAEEEKARREEQINFNLTLSIKDAIFQGRARVYKMKLNRFLKMELDGRGVADTNRRVLLKEFFKDPTRYVRDAGVLNEIQASDAYLMAKRAVREEMDMEEDIRKLQYKHLRTLLGWSIASAEIRASVREITKGFLDAVLEELRKPTTTIAR | not soluble
MGSDKIHHHHHHMKTITTWQNNIQIVKDATNIVEISKGFSPDKKYIVTTIDEEKYLLRIGDIQEYERRKIEFQILNEMVKRNVQAQRPIEIGILEEEGVCYSIFSYLEGEDAKKLLPTYSPKKQYEIGIEAGKDLAKMHTYEAPNDTLPWYERAMKKHQKYVEAYKTCGIKIKNDDKIIKFIDENEMYLQNRPNQFQHDDFHLENIIVRDGKYVGVVDFNGYDWGDPLHDFVKIALFARDISIPYSIGQIEGYFNGRIPEEFWKLYAVYVGMTVFSSVVWTLRAAPHMLDDTLERLTVVLEDHKDFELLKPIWFQPEKIDIKK | not soluble
MVLRRDFLTWCNETLQTALFKDYAPNGLQVEGREYIGKIVTSVTASRAAIDFAVEQKADLLLVHHGMFWKNELPTVTGWKKERIAALLRHDINMAGYHLPLDAHPTLGNNAQLADRLGFATEKRFGEQNLLNSGSLKQAKTLGALAAHIETVLQRKPVVIGKPEREIRRVAWCSGGAQGFFQTAIDEGVDLYLTGEISEAQYHLANETGTAFISAGHHATERYGVRALAESAAEVFGLEVCHFDENNPALEHHHHHH | soluble
MALICELDEQWSYVGSKARLHWLWYAYNTKTGGVLAYTFGPRTDQTCRELLALLTPFNIGMLTSDDWDSYGRVVPKNKHLTGKIFTQRIERNNLTLRTHIKRLARKQSASHAQLRSTKK | not soluble
